Experimental data reported in paper PMC9669668.
pKd: −log10 of the molar value. Read-outs that look alike come from different tables or passages of the source.

Experiments:
[1] = biological target: nucleotide-binding domain of Hsp70 (Hsp70 NBD, aa 1–382) (human) (UniProt P0DMV8); experiment: ITC
[2] = biological target: nucleotide-binding domain of Hsp70 (Hsp70 NBD, aa 1–382) (human) (UniProt P0DMV8); experiment: ITC; remark: listed apart in the source

Sequence of UniProt P0DMV8 (P0DMV8 1-382): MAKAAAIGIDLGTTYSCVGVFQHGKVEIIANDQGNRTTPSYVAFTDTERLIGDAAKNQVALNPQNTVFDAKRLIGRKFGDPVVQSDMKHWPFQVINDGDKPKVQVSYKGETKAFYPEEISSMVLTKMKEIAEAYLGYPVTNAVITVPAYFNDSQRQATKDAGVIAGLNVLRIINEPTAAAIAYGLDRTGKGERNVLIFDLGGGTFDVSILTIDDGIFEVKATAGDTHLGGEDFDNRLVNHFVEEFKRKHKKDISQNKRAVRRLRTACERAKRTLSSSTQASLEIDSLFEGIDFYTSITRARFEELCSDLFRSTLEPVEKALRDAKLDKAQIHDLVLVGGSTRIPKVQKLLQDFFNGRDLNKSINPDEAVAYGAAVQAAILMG

| pKd [1] | pKd [2] | stoichiometry N [2] | Substance |
| --- | --- | --- | --- |
| 5.51 | 5.51 | 1 | FAF1 L-UBL1 (aa 91–171) (from UniProt Q9UNN5 91-171) (domain or fragment) |
| 4.25 | 4.80 | 1 | FAF1 (aa 1–171) (from UniProt Q9UNN5 1-171) (domain or fragment) |
